The source of these data is US20210388087A1 (Chugai, published 2021).

Substitutions are numbered along the chain they refer to. Names and notes keep the numbering of the source.

Sequences and labels used below:
B1: H183/L072 VH N31L (antibody, name in Kabat numbering, V domains shown)
VH: QVQLVESGGGLVQPGRSLRLSCAASGFTFSLAWMHWVRQAPGKGLEWVAQIKDKGNAYAAYYAPSVKGRFTISRDDSKNSIYLQMNSLKTEDTAVYYCHYVHYASASTVLPAFGVDAWGQGTTVTVSS
VL: DIVMTQSPLSLPVTPGEPASISCQASQELVHMNRNTYLHWYQQKPGQAPRLLIYKVSNRFPGVPDRFSGSGSGTDFTLKISRVEAEDVGVYYCAQGTSVPFTFGQGTKLEIK
B2: H183/L072 VH N31Y (antibody, name in Kabat numbering, V domains shown)
VH: B1 VH with L31Y
VL: B1 VL
B3: H183/L072 VH N31P (antibody, name in Kabat numbering, V domains shown)
VH: B1 VH with L31P
VL: B1 VL
B4: H183/L072 VH P61I (antibody, name in Kabat numbering, V domains shown)
VH: B1 VH with L31N, P64I
VL: B1 VL
B5: H183/L072 VH N31Q (antibody, name in Kabat numbering, V domains shown)
VH: B1 VH with L31Q
VL: B1 VL
B6: H183/L072 VH P100eI (antibody, name in Kabat numbering, V domains shown)
VH: B1 VH with L31N, P111I
VL: B1 VL
B7: H183/L072 VH N31W (antibody, name in Kabat numbering, V domains shown)
VH: B1 VH with L31W
VL: B1 VL
B8: H183/L072 VH Q50N (antibody, name in Kabat numbering, V domains shown)
VH: B1 VH with L31N, Q50N
VL: B1 VL
B9: H183/L072 VH Q50F (antibody, name in Kabat numbering, V domains shown)
VH: B1 VH with L31N, Q50F
VL: B1 VL
B10: H183/L072 VH S30A (antibody, name in Kabat numbering, V domains shown)
VH: B1 VH with S30A, L31N
VL: B1 VL
B11: H183/L072 VH Q50K (antibody, name in Kabat numbering, V domains shown)
VH: B1 VH with L31N, Q50K
VL: B1 VL
B12: H183/L072 VH Q50V (antibody, name in Kabat numbering, V domains shown)
VH: B1 VH with L31N, Q50V
VL: B1 VL
B13: H183/L072 VH Q50D (antibody, name in Kabat numbering, V domains shown)
VH: B1 VH with L31N, Q50D
VL: B1 VL
B14: H183/L072 VH N31T (antibody, name in Kabat numbering, V domains shown)
VH: B1 VH with L31T
VL: B1 VL
B15: H183/L072 VH P61L (antibody, name in Kabat numbering, V domains shown)
VH: B1 VH with L31N, P64L
VL: B1 VL
B16: H183/L072 VH P61M (antibody, name in Kabat numbering, V domains shown)
VH: B1 VH with L31N, P64M
VL: B1 VL
B17: H183/L072 VH N31V (antibody, name in Kabat numbering, V domains shown)
VH: B1 VH with L31V
VL: B1 VL
B18: H183/L072 VH Q50T (antibody, name in Kabat numbering, V domains shown)
VH: B1 VH with L31N, Q50T
VL: B1 VL
B19: H183/L072 VH N53Y (antibody, name in Kabat numbering, V domains shown)
VH: B1 VH with L31N, N56Y
VL: B1 VL
B20: H183/L072 VH Q50E (antibody, name in Kabat numbering, V domains shown)
VH: B1 VH with L31N, Q50E
VL: B1 VL
B21: H183/L072 VH P100eL (antibody, name in Kabat numbering, V domains shown)
VH: B1 VH with L31N, P111L
VL: B1 VL
B22: H183/L072 VH N31S (antibody, name in Kabat numbering, V domains shown)
VH: B1 VH with L31S
VL: B1 VL
B23: H183/L072 VH Q50H (antibody, name in Kabat numbering, V domains shown)
VH: B1 VH with L31N, Q50H
VL: B1 VL
B24: H183/L072 VH P100eM (antibody, name in Kabat numbering, V domains shown)
VH: B1 VH with L31N, P111M
VL: B1 VL
B25: H183/L072 VH Q50Y (antibody, name in Kabat numbering, V domains shown)
VH: B1 VH with L31N, Q50Y
VL: B1 VL
B26: H183/L072 VH Q50M (antibody, name in Kabat numbering, V domains shown)
VH: B1 VH with L31N, Q50M
VL: B1 VL
B27: H183/L072 VH P100eA (antibody, name in Kabat numbering, V domains shown)
VH: B1 VH with L31N, P111A
VL: B1 VL
B28: H183/L072 VH P61A (antibody, name in Kabat numbering, V domains shown)
VH: B1 VH with L31N, P64A
VL: B1 VL
B29: H183/L072 VH Q50S (antibody, name in Kabat numbering, V domains shown)
VH: B1 VH with L31N, Q50S
VL: B1 VL
B30: H183/L072 VH Q50W (antibody, name in Kabat numbering, V domains shown)
VH: B1 VH with L31N, Q50W
VL: B1 VL
B31: H183/L072 VH Q50L (antibody, name in Kabat numbering, V domains shown)
VH: B1 VH with L31N, Q50L
VL: B1 VL

In the assay the target is T1, Human CD137 ECD (human).
T1 construct: also called 4-1BB
T1 sequence (chain, as listed by the source limits assumed): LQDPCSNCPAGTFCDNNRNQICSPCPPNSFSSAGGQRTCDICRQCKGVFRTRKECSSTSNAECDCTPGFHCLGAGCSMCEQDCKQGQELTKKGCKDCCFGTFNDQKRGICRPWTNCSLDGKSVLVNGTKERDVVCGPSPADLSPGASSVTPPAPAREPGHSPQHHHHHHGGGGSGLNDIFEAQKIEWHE
Description: single mutant vs template dBBDu183H.
On to B1, for which the “fold change of affinity” value stood at 0.3 fold. With B2 the figure was 0 fold; with B3, 0.4 fold.

For B4, the “fold change of affinity” value was determined as 0.5 fold. As to B5, the “fold change of affinity” value turned out to be 0.2 fold. Regarding B6, the “fold change of affinity” value is 0 fold. With B7, the “fold change of affinity” value was 0.3 fold. With B8 the figure was 0.5 fold; with B9, 2.6 fold. As to B10, the “fold change of affinity” value was 1.2 fold.

Turning to B11, the “fold change of affinity” value was determined as 0.8 fold.

Regarding B12, the “fold change of affinity” value stood at 0.3 fold. With B13 the figure was 0.3 fold; with B14, 0.5 fold; with B15, 0.6 fold. With B16 the figure was 0.6 fold; with B17, 0.2 fold.

As for B18, the “fold change of affinity” value came out at 2 fold. For the molecule B19, the “fold change of affinity” value was determined as 0 fold. With B20 the figure was 0.5 fold; with B21, 0 fold; with B22, 0.3 fold. Consider B23, for which the “fold change of affinity” value worked out at 0.6 fold.

As to B24, the “fold change of affinity” value is 0 fold.

B25: the “fold change of affinity” value is 3.1 fold. With B26 the figure was 1.5 fold. With B27 the figure was 0.5 fold; with B28, 0.8 fold. With B29 the figure was 0.8 fold; with B30, 1.7 fold; with B31, 0.8 fold.
